# Experimental data: the nanobody polyreactivity screen of Harvey et al. (2022)
# Experiment: yeast display, Sf9 membrane polyspecificity reagent, FACS + sequencing; frameworks hold sequencing errors
# How it was run: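 Nanobodies came from a synthetic yeast display library in Saccharomyces cerevisiae BJ5465, induced with galactose for 36–48 hours and stained for 1 hour at 4 °C with 10% biotinylated, detergent-solubilized Sf9 membrane reagent. Cells were enriched on streptavidin microbeads and then FACS-sorted, with low and high (top ~1%) gates set on anti-HA fluorescence for expression and streptavidin fluorescence for reagent binding. Each polyreactivity label reflects the gate a clone came from. Genes were amplified by colony PCR, sequenced by MiSeq 2 × 250 and filtered by CDR length.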
row,Sequence,polyreactivity (PSR sort gate)
1,QVQLVESGGGLVQAGGSLRLSCADSGITFFIYAMGWYIQAPGKERELVAAISGRSGSTYYADSVKGRFTISRDNAKNTVYLQMNSLKPEDTAVYYCAAGLTFFSYSLDYWGQGTQVTVSS,low polyreactivity
2,QVQLVESGGGLVQAGGSLRLSCADSGITFPVNDMGWSRQAHGKEREFVADITSSGGNTYYADSVKGRFTISRDNAKNTVYLKMNSLIPEDTAVYYCNADDGYFYVYQGWYEEMDYWGQGNQVTVSS,high polyreactivity
3,QVQLVESGGGLVQAGGSLRLSCADSGITFSVYAMGWYRQAPGKERELVASISSGGTSTYYADSVKGRFTISRDNAKNTVYLQMNSQKPEDTAVYYCAAYSYYTGDQYSYDYWGQGTQVTVSS,low polyreactivity
4,QVQLVESGGGLVQAGGSLRLSCADSGITFWTNTMGWYRQAPGKERELVAVITSGGTTNYADSVKGRFTISRDNAKNTVYLQMNSLKPEDTAVYYCAKKYGYFGLHGYWGQGTQVTVSS,high polyreactivity
5,QVQLVESGGGLVQAGGSLRLSCADSGLTFYRYAMGWYRQAPGKERELVAAIRVSGNTYYADSVKGRFTISRDNAKNTVYLQMNSLKPEDTAVYYCAAKPYYFYGMDYWGQGTQVTVSS,high polyreactivity
6,QVQLVESGGGLVQAGGSLRLSCADSGNIFRSYKGWYRQAPGKERELVASISRRGGSTYYADSVKGRFTISRDNAKNTVYLQINSLKPEDSAVYYCARRWSWVNGVFGLYWGQGTQVTLSS,high polyreactivity
7,QVQLVESGGGLVQAGGSLRLSCADSGNTFPSYVMGWYRQAPGKERELVAAINRGGGTYYADSVKGRFTISRDNAKNTVYLQMNSLKPEDTAVYYCAVRYQRHPNMDYWGQGTQVTVSS,low polyreactivity
8,QVQLVESGGGLVQAGGSLRLSCADSGNTIYGYAMGWNRQAPGKERELVASITLSGDSTYYADSVKGRFTISRDNAKNTVFLQMNRLKPEDTSVYYCSGVYTYPLGYYHYTYDYWGQGSQVTVSS,low polyreactivity
9,QVQLVESGGGLVQAGGSLRLSCADSGRIFGYYAMGWYRQAPGKERELVAAITVSDGRTNYADSVKGRFTISRDNAKNTVYLQMNSLKPEDTAVYYCAAVTPFRVLYDYWGQGTQVTVSS,low polyreactivity
10,QVQLVESGGGLVQAGGSLRLSCADSGRIFHYNAMGWYRQAPRKERELVAAISTGGSTNYADSVKGRFTISRDNAKNTVYLQMNSLNPEDTAVYYCAADHPVTYPTSKFDYCGQGTQVTVSS,low polyreactivity
11,QVQLVESGGGLVQAGGSLRLSCADSGRIFRRYAMGWYRQAPGKERELVAAITTSGGSTYYADSVKGRFTISRDNAKNTVYLQMNSLKPEDTAVYYCNARSSVYGHRKGSARIPRYDYWGQGTQVTVSS,high polyreactivity
12,QVQLVESGGGLVQAGGSLRLSCADSGRIFVRKAMGWYRQAPGKERELVAAISARGGRTNYADSVKGRFTISRDNAKNTVYLQMNSLKPEDTAVYYCAADGLRAAYLYDYWGQGTQVTVSS,high polyreactivity
13,QVQLVESGGGLVQAGGSLRLSCADSGRIIPSYDMGWYRQAPGKERELVAVIRSSVDGTYYADSVKGRFTISRDNAKNTVYLQMNSLKPEDTAVYDCAADSLTPKSASDYWGQGTQVTVSS,low polyreactivity
14,QVQLVESGGGLVQAGGSLRLSCADSGRTFKFNAMGWYRQAPGKERELVVGITWTGSTTSYADSVKGRFTISRDNAKNTVYLQMNSLKPEDTAVYYCAADKIRFWYHGFYYRGQGTQVTVSS,low polyreactivity
15,QVQLVESGGGLVQAGGSLRLSCADSGRTFRNYAMGRYRQAPGKERELVATITSSGASTYYADSVKGRFTISRDNAKNTVYLQMNSLKPEDTAVYYCAARPYTGRYFLGYYYWGQGTQVTVSS,high polyreactivity
16,QVQLVESGGGLVQAGGSLRLSCADSGRTFRRYKMGWYRQAPGKERELVATISSGGSTYADSVKGRFTISRDNAKNTVYLQMNSLKPEDTAVYYCAARYDVAWYSKRYSWGQGTQVTVSS,high polyreactivity
17,QVQLVESGGGLVQAGGSLRLSCADSGRTFTGYVMGWYRQAPGKEREFVAVIRYRGGGTYYAYSVKGRFTISRDNAKNTVYLQMNSLKPEDTAVYYCSARWRYSYVGDFDYWGQGTQVTVSS,high polyreactivity
18,QVQLVESGGGLVQAGGSLRLSCADSGRTFTNNAMGWYIQAPGKERELVAAITSGGRTNYADSVKGRFTISRDNAKNTVYLQMNSLKPEDTAVYYCAARIPSDGYYYWGQGTQVTVSS,high polyreactivity
19,QVQLVESGGGLVQAGGSLRLSCADSGRTFYYYAMGWYRQAPGKERELVASISYSAGRTYADSVKGRFTISRDNAKNTVYLQMNSLKPEDTAVYYCNADVTTVPYTNDYWGQGTQVTVSS,high polyreactivity
20,QVQLVESGGGLVQAGGSLRLSCADSGRTIRGNAMGWYRQAPGKERELVAAITSSGGGTYYADSVKGRFTISRDNAKNTVYLQMNSLNPEDTAVFYGAAEYRDGYRFSYDYWGQGTQVTVSS,low polyreactivity
21,QVQLVESGGGLVQAGGSLRLSCADSGRTLGVYAMRWYRQAPGKERELVASISFSGGRTYYADSVKGRFTISRDNAKNTVYLQMNSLKPEDTAVYYCAAGGRVRYQTKYRYGYDYWGQGTQVTVSS,low polyreactivity
22,QVQLVESGGGLVQAGGSLRLSCADSGSGGYAMGWYRQAPGKERELVAAIDNGGSTYYADSVKGRFTISRDNAKNTVYLQMNSLKPEDTAVYYCAAAYRDYTQVTAGDYWGQGTQVTVSS,low polyreactivity
